# PMC1933581
# What was measured:
# [1] = system: Rev (D36) (HIV-1, SBBC subject D36); test: EMSA; details: 10 mM HEPES/KOH pH 7.6, 150 mM KCl, 2 mM MgCl2, 0.5 mM EGTA, 1 mM DTT, 20% glycerol, 3.2 ug E. coli tRNA in 10 ul; excess RNA, protein 0-0.50 uM; 10 min on …
# [2] = system: Rev (C64) (HIV-1, SBBC subject C64); test: EMSA; details: 10 mM HEPES/KOH pH 7.6, 150 mM KCl, 2 mM MgCl2, 0.5 mM EGTA, 1 mM DTT, 20% glycerol, 3.2 ug E. coli tRNA in 10 ul; excess RNA, protein 0-0.50 uM; 10 min on …
substance,measurement,setting,value
RRE riboprobe,binding signal (% reduction vs NL4-3 Rev),[1],90
same,binding signal (% reduction vs NL4-3 Rev),[2],90
